Positions count from the first letter of the chain named.
B1: human HspB2 (natural protein, UniProt Q16082 1-182, looked up)
chain: MSGRSVPHAHPATAEYEFANPSRLGEQRFGEGLLPEEILTPTLYHGYYVRPRAAPAGEGSRAGASELRLSEGKFQAFLDVSHFTPDEVTVRTVDNLLEVSARHPQRLDRHGFVSREFCRTYVLPADVDPWRVRAALSHDGILNLEAPRGGRHLDTEVNEVYISLLPAPPDPEEEEEAAIVEP
notes: human HspB2 (small heat shock protein B2); Made together with HspB3 from one pET3a construct; also called HsB2; HspB2_Human; source: E. coli BL21(DE3), pET3a-HspB2/B3, purified (DEAE-Sepharose, Source 15Q)
B2: rat HspB2/B3 hetero-tetramer (complex)
chain 1: B1 chain with S5T, P55R, S60G, A177V, I179R
chain 2: MAKIILRHLIETPVRYQEEFEARGLEDCRLDHALYALPGPTIEDLRKARGTPKALAEDSDSAETPPGEGKSRFQILLDVVQFLPEDIIIQTFEGWLLIKAQHGTRMDEHGFISRSFTRQYKLPDGVETKDLSAILCHDGILVVEVKDPLETK
notes: rat HspB2, as m5; rat HspB3, as m6; The protomer that forms the higher oligomers; also called wild-type rat HspB2/B3; copies: 3 + 1
B3: human HspB3 (wild type) (natural protein, UniProt Q12988 1-150, looked up)
chain: MAKIILRHLIEIPVRYQEEFEARGLEDCRLDHALYALPGPTIVDLRKTRAAQSPPVDSAAETPPREGKSHFQILLDVVQFLPEDIIIQTFEGWLLIKAQHGTRMDEHGFISRSFTRQYKLPDGVEIKDLSAVLCHDGILVVEVKDPVGTK
notes: human HspB3 (small heat shock protein B3); HspB3 could not be purified alone; it is obtained only in complex with HspB2; also called HsB3; HspB3_Human; source: E. coli BL21(DE3), pET3a-HspB2/B3 wild type, purified with HspB2 (DEAE-Sepharose, Source 15Q)
B4: rat HspB2 (natural protein, UniProt O35878 1-182, looked up)
chain: B1 chain with S5T, P55R, S60G, A177V, I179R
notes: rat HspB2, wild type; C-terminal residues E172 to P182 seen by NMR; also called RnB2; HspB2_Rat
B5: engineered human HspB3 with the C-terminal extension of human HspB2 (HspB3 + B2tail) (other)
chain: MAKIILRHLIEIPVRYQEEFEARGLEDCRLDHALYALPGPTIVDLRKTRAAQSPPVDSAAETPPREGKSHFQILLDVVQFLPEDIIIQTFEGWLLIKAQHGTRMDEHGFISRSFTRQYKLPDGVEIKDLSAVLCHDGILVVEVKDPVGTPEEEEEAAIVEP
notes: human HspB3 without its C-terminal lysine, which was replaced by the HspB2 tail; last 12 amino acids of human HspB2, residues 171-182; The results say the tail was added to the C-terminus; the methods say it replaced the C-terminal lysine (the reverse primer fits the methods); also called engineered HspB3 mutant; engineered mutant human HspB3; source: E. coli BL21(DE3), pET3a-HspB2/B3 mutant, …
B6: rat HspB3 (natural protein, UniProt Q9QZ58 1-152, looked up)
chain: B2 chain 2
notes: rat HspB3, wild type; ultimate C-terminal residue K152; also called RnB3; HspB3_Rat

How the values were obtained:
[1] = target: the molecule itself; assay: crystal structure; hanging drop at 21 °C; 3.9 Å; space group P3(1); three hetero-tetramers (12 chains) in the asymmetric unit
human HspB3 (wild type) = target: B3; assay: SEC + native MS; HspB2/B3 complexes; Superdex 200 10/300 fractions nanoelectrosprayed at 10 μM in 200 mM ammonium acetate (pH 6.9); conditions: both partners purified
[2] = target: B5; assay: as above; conditions: both partners purified
[3] = target: the molecule itself; assay: as above
rat HspB2 = target: B4; assay: as above; conditions: both partners purified
rat HspB3 = target: B6; assay: as above; conditions: both partners purified
human HspB2 [4] = target: B1; assay: crystal structure; hanging drop at 21 °C; 3.9 Å; space group P3(1); three hetero-tetramers (12 chains) in the asymmetric unit; conditions: both partners purified
human HspB2 [5] = target: B1; assay: SEC + native MS; HspB2/B3 complexes; Superdex 200 10/300 fractions nanoelectrosprayed at 10 μM in 200 mM ammonium acetate (pH 6.9); conditions: both partners purified

Binder: B1
binding result [1]: binds
stoichiometry N (human HspB3 (wild type)): 3 HspB2 per HspB3
stoichiometry N [2]: 3 HspB2 per HspB3

Binder: B2
stoichiometry N [3]: 8 to 24 chains (the hetero-tetramer has 4)

Binder: B3
binding result (rat HspB2): binds

Binder: B4
stoichiometry N (rat HspB3): 3 HspB2 per HspB3

Binder: B5
binding result (human HspB2 [4]): binds

Binder: B6
binding result (human HspB2 [5]): binds

— paper PMC6119766, “Terminal Regions Confer Plasticity to the Tetrameric Assembly of Human HspB2 and HspB3” (Journal of Molecular Biology, 2018)
